Measurements from PMC9699129.

Assays:
[1] = target: MsFcγRIα-EGFP (largemouth bass FcγRIα fused to EGFP, expressed on transfected HEK293 cells) (largemouth bass (Micropterus salmoides)); experiment: flow cytometry on cells; MsFcγRIα-EGFP-transfected HEK293 cells in serum-free DMEM, 20 μg/mL purified MsIgM added for 6 h at 37 °C; bound MsIgM detected with anti-MsIgM mAb MM06H and Alexa Fluor 647 goat anti-mouse IgG; n = 3
[2] = target: MsFcγRIα-EGFP (largemouth bass FcγRIα fused to EGFP, expressed on transfected HEK293 cells) (largemouth bass (Micropterus salmoides)); experiment: flow cytometry on cells; MsFcγRIα-EGFP-transfected HEK293 cells in serum-free DMEM, 20 μg/mL purified MsIgM added for 24 h at 37 °C; bound MsIgM detected with anti-MsIgM mAb MM06H and Alexa Fluor 647 goat anti-mouse IgG; n = 3
[3] = target: MsFcγRIα-EGFP (largemouth bass FcγRIα fused to EGFP, expressed on transfected HEK293 cells) (largemouth bass (Micropterus salmoides)); experiment: flow cytometry on cells; MsFcγRIα-EGFP-transfected HEK293 cells in serum-free DMEM, 20 μg/mL purified MsIgM added for 12 h at 37 °C; bound MsIgM detected with anti-MsIgM mAb MM06H and Alexa Fluor 647 goat anti-mouse IgG; n = 3

percent of MsFcγRIα-expressing HEK293 cells with MsIgM after 6 h incubation [1]: 19.7%
percent of MsFcγRIα-expressing HEK293 cells with MsIgM after 24 h incubation [2]: 40.3%
percent of MsFcγRIα-expressing HEK293 cells with MsIgM after 12 h incubation [3]: 26.3%
Substance: largemouth bass IgM (MsIgM), purified from serum (natural protein)
